This assay has as its target T1, Recombinant truncated p115 (p115 702-962), carboxy-terminal histidine tag (human, UniProt O60763 702-962).
T1 sequence (looked up): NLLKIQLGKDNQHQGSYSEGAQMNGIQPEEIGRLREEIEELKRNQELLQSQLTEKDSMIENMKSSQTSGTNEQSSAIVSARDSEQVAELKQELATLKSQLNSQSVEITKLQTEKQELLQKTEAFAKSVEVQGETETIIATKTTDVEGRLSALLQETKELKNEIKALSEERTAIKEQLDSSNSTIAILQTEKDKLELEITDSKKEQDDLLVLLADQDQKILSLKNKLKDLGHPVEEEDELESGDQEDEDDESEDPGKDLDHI
Description: ELISA. On the technique in general: An ELISA detects its analyte on a solid surface through an enzyme-linked reagent.

B1: Biotinylated recombinant human MIF (natural protein, UniProt P14174 1-115, looked up)
chain: MPMFIVNTNVPRASVPDGFLSELTQQLAQATGKPPQYIAVHVVPDQLMAFGGSSEPCALCSLHSIGKIGGAQNRSYSKLLCGLLAERLRISPDRVYINYYDMNAANVGWNNSTFA
modifications: biotin (Biotin Protein Labeling Kit, Roche)
With B1, the binding result was “binds”.

The record behind these values is paper PMC3135652 (Journal of immunology (Baltimore, Md. : 1950), 2009).
